Assay results taken from publication PMC8087942, “Full closed loop open‐source algorithm performance comparison in pigs with diabetes” (Clinical and Translational Medicine, 2021).

Assay: Insulin lispro pharmacokinetics after subcutaneous Humalog in fasted pigs with diabetes (plasma lispro by ELISA)
Format: in vivo, pig
Conditions: pilot study, pigs with diabetes (n = 6), fasted 4–6 h, 4 U Humalog (100 U/ml) subcutaneous, plasma lispro by Insulin Lispro ELISA (Mercodia)
Procedure: Insulin pharmacokinetics are more rapid in pigs than in humans. ^19 , ^20 , ^29 Thus, it was necessary to construct models for insulin action to be used in both open‐source systems, which model insulin action as an exponential curve. In AndroidAPS, the parameters defining the curve are time‐to‐peak action (TPA) and total duration of insulin action (DIA). ^23 Loop uses time‐to‐onset, TPA, and DIA. ^15 The pig pharmacokinetic curves for use in open‐source algorithms were determined from data obtained during a pilot study in pigs (n = 6). This experimental pharmacokinetic curve is consistent with pharmacokinetics observed in the pigs used in this study. ^20 Pigs were kept on fast 4–6 h and then injected subcutaneously with a 4 U dose of Humalog (100 U/ml, Eli Lilly). Before injection, baseline blood was sampled from an intravenous catheter line and measured using a handheld glucose monitor (Bayer Contour Next). After injection, blood was sampled from the intravenous catheter line every 5 min for the first 60 min, then every 30 min up to 4 h. Blood was collected in K2EDTA plasma tubes (Greiner‐BioOne) for analysis with ELISA. Plasma lispro concentrations were quantified using an Insulin Lispro ELISA kit (Mercodia). Pharmacodynamics were approximated by blood glucose measurements in a stable fasting state after 2–3 h (Figure 2A). […]

Substance: Humalog: Commercial rapid-acting insulin lispro formulation (100 U/ml, Eli Lilly) injected subcutaneously in pigs
- near complete exposure duration: ~2 h
- time of peak serum concentrations (sampled every 5 min for 60 min, then every 30 min up to 4 h): 20 to 25 min
